Data published in US10502741B2, “Means and methods for detecting activated MALT1” (Helmholtz Zentrum München Deutsches Forschungszentrum für …, priority 2014, dated 2019).

Target: T1, active MALT1 (Homo sapiens, UniProt Q9UDY8)
T1 construct: endogenous in cells; host or cells: Jurkat T cells, primary human PBMCs and T cells, DLBCL cell lines (HBL1, TMD8, OCI-Ly3, OCI-Ly10, U2932, RIVA, BJAB, Su-DHL-4, Su-DHL-6)
T1 sequence (Q9UDY8 1-824): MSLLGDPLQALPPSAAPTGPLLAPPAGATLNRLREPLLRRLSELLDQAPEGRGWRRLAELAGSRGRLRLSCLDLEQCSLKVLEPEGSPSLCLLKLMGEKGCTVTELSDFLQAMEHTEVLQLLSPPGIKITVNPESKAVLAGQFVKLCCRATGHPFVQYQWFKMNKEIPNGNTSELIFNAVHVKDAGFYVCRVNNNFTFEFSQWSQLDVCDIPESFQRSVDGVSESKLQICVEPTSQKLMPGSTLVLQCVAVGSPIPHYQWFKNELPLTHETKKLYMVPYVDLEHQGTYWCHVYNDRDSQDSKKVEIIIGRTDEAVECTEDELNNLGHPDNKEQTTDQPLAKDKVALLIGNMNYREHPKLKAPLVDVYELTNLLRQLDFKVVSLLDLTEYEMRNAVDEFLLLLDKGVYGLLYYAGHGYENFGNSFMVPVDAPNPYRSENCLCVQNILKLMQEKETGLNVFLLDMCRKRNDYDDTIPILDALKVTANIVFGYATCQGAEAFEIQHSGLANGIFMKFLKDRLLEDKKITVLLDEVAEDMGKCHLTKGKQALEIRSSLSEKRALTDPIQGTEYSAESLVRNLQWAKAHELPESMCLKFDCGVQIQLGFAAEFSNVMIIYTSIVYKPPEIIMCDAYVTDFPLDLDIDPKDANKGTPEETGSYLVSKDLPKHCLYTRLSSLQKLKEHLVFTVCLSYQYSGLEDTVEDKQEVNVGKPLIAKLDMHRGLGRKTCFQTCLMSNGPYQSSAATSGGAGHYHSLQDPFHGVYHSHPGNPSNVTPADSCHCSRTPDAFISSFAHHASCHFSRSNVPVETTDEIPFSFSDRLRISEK
Assay: Probe 7-pulldown with streptavidin beads and western blot
Type: cell-based
Details: Jurkat T cells pretreated with 10 μM inhibitors, 0.1 μM probe 7
Experimental: Jurkat T cells were cultured in standard RPMI medium containing 10% FCS, 100 U/ml Penicillin/Streptomycin and 2 mM Glutamin. DNA transfection of 6 μg DNA in 8×10^6 Jurkat T cells was performed by electroporation in a GenePulser Xcell (BioRad) with a 220 Volt pulse. For siRNA experiments, Jurkat T cells were transfected with 100 nM siRNA and Atufect transfection reagent (Silence Therapeutics, Berlin). Jurkat T cells were stimulated either with 200 ng/ml PMA (phorbol 12-myristate 13-acetate) and 300 ng/ml Ionomycin (both Calbiochem) or CD3/CD28 antibody co-ligation (human CD3: 1 μg/ml; human CD28: 4 μg/ml; mouse IgG1: 2 μg/ml; mouse IgG2a: 2 μg/ml; BD Biosciences). DLBCL cell lines (HBL1, TMD8, OCI-Ly3, U2932, RIVA, BJAB, Su-DHL-4 and Su-DHL-6) were cultured in standard RPMI medium containing 20% FCS, 100 U/ml Penicillin/Streptomycin and 2 mM Glutamin. OCI-Ly10 cell line was cultured in IMDM containing 20% human serum, 100 U/ml Penicillin/Streptomycin, 2 U/ml heparine, 50 μM β-mercaptoethanol. Inhibitors 10 μM (z-VRPR-FMK, Mepazine, Thioridazine, CA-074Me) were added to the cells in media for 1 h, prior to stimulation and labeling with diagnostic MALT1 inhibitor.
Untreated DLBCL (1-2×10^7) or Jurkat T cells (stimulated with PMA/Ionomycin or CD3/28 or left untreated; 1-2×10^7), were lysed in 500 μl co-IP buffer without protease inhibitors, centrifuged, incubated with probe 7 (concentration as depicted) for 1 h at RT then incubated with streptavidin beads for 2 h at 4° C. Precipitate was washed, analysed by SDS-PAGE and western blot.

- effect of inhibitor on formation of MALT1-probe 7 complexes: blocked
Substance: z-VRPR-FMK (Z N-terminal cap, FMK warhead)
